One molecule from article PMC6193540 can be followed below.

Assay [1] concerns the target p53, endogenous in 93-VU-147T HNSCC cells (human (endogenous in 93-VU-147T)) (UniProt P04637). Kind of assay: co-IP.
The target in assay [2] is p53, endogenous in 92-VU-040T HNSCC cells (human (endogenous in 92-VU-040T)) (UniProt P04637). Kind of assay: co-IP.

B1: PBF, HA-tagged (natural protein)
chain: QEPPGAACSQNTNKTCEECLKNVSCLWCNTNKACLDYPVTSVLPPASLCKLSSARWGVCWVNFEALIITMSVVGGTLLLGIAICCCCCCRRKRSRKPDRSEEKAMREREERRIRQEERRAEMKTRHDEIRKKYGLFKEENPYARFENN
B1: the fold change of the binding to p53 in PTTG-depleted cells against Scr shRNA cells in assay [1] was found to be 3.6 fold; in assay [2], 4 fold.
